# In publication PMC3877283, “Development of Novel Radiogallium-Labeled Bone Imaging Agents Using Oligo-Aspartic Acid Peptides as Carriers” (PLoS ONE, 2013):
# Where two headings read alike, the source gives them in different places. Peptide text beside a SMILES is read from it. * marks the point of attachment. DOTA = O=C(O)CN1CCN(CC(=O)O)CCN(CC(=O)*)CCN(CC(=O)O)CC1
# Assay: Biodistribution experiments in normal mice
# Type: in vivo, ddY mice
# Details: for F/B ratio (Femur:blood ratio) / tissue uptake dose at 1 h / tissue uptake dose at 3 h / tissue uptake dose at 10 min: male ddY mice, no pretreatment, mean (SD) for four or five animals
# Protocol: Experiments with animals were conducted in strict accordance with the Guidelines for the Care and Use of Laboratory Animals of Kanazawa University. The animal experimental protocols used were approved by the Committee on Animal Experimentation of Kanazawa University (Permit Number: AP-132633). Biodistribution experiments were performed after an intravenous administration of each diluted tracer solution (37 kBq/100 µL) to 6-week-old male ddY mice (27–32 g, Japan SLC, Inc., Hamamatsu, Japan). To investigate the effect of an excess amount of bisphosphonate on biodistribution, alendronate (20 mg/kg) was intravenously administered to mice 1 minute before the intravenous injection of ^67Ga-DOTA-(Asp)14 or ^67Ga-DOTA-Bn-SCN-HBP. Four to six mice each were sacrificed by decapitation at 10, 60, and 180 minutes post-injection. Tissues of interest were removed and weighed. Complete left femurs were isolated as representative bone samples, radioactivity was determined using an auto well gamma counter, and counts were corrected for background radiation and physical decay during counting.
compound,measurement,setting,value
"O=C(O)C[C@H](NC(=O)[C@H](CC(=O)O)NC(=O)[C@H](CC(=O)O)NC(=O)[C@H](CC(=O)O)NC(=O)[C@H](CC(=O)O)NC(=O)[C@H](CC(=O)O)NC(=O)[C@H](CC(=O)O)NC(=O)[C@H](CC(=O)O)NC(=O)[C@H](CC(=O)O)NC(=O)[C@H](CC(=O)O)NC(=O)[C@H](CC(=O)O)NC(=O)[C@H](CC(=O)O)NC(=O)[C@H](CC(=O)O)NC(=O)[C@H](CC(=O)O)NC(=O)CN1CCN(CC(=O)O)CCN(CC(=O)O)CCN(CC(=O)O)CC1)C(=O)O [67Ga-DOTA-(Asp)14, metal not drawn] ({DOTA}-DDDDDDDDDDDDDD-OH)",F/B ratio (Femur:blood ratio),10 min after i.v. administration,6.27 (0.66)
same,F/B ratio (Femur:blood ratio),60 min after i.v. administration,185.54 (46.89)
same,F/B ratio (Femur:blood ratio),180 min after i.v. administration,591.08 (221.41)
same,tissue uptake dose at 1 h,"male, ddY, mouse, in vivo, iv, 37 kBq/100 uL, total radioactivity, Blood, 60 min after i.v. administration, read-out: Radioactivity in Blood",0.07 %ID
same,tissue uptake dose at 3 h,"male, ddY, mouse, in vivo, iv, 37 kBq/100 uL, total radioactivity, Blood, 180 min after i.v. administration, read-out: Radioactivity in Blood",0.03 %ID
same,tissue uptake dose at 10 min,"male, ddY, mouse, in vivo, iv, 37 kBq/100 uL, total radioactivity, Bone (complete left femur), 10 min after i.v. administration, read-out: Radioactivity in Bone (Femur)",10.1 %ID
same,tissue uptake dose at 1 h,"male, ddY, mouse, in vivo, iv, 37 kBq/100 uL, total radioactivity, Bone (complete left femur), 60 min after i.v. administration, read-out: Radioactivity in Bone (Femur)",12.8 %ID
same,tissue uptake dose at 3 h,"male, ddY, mouse, in vivo, iv, 37 kBq/100 uL, total radioactivity, Bone (complete left femur), 180 min after i.v. administration, read-out: Radioactivity in Bone (Femur)",13.3 %ID
same,tissue uptake dose at 10 min,"male, ddY, mouse, in vivo, iv, 37 kBq/100 uL, total radioactivity, Brain, 10 min after i.v. administration, read-out: Radioactivity in Brain",0.05 %ID
same,tissue uptake dose at 1 h,"male, ddY, mouse, in vivo, iv, 37 kBq/100 uL, total radioactivity, Brain, 60 min after i.v. administration, read-out: Radioactivity in Brain",0.01 %ID
same,tissue uptake dose at 3 h,"male, ddY, mouse, in vivo, iv, 37 kBq/100 uL, total radioactivity, Brain, 180 min after i.v. administration, read-out: Radioactivity in Brain",0.01 %ID
same,tissue uptake dose at 10 min,"male, ddY, mouse, in vivo, iv, 37 kBq/100 uL, total radioactivity, Heart, 10 min after i.v. administration, read-out: Radioactivity in Heart",0.62 %ID
same,tissue uptake dose at 1 h,"male, ddY, mouse, in vivo, iv, 37 kBq/100 uL, total radioactivity, Heart, 60 min after i.v. administration, read-out: Radioactivity in Heart",0.06 %ID
same,tissue uptake dose at 3 h,"male, ddY, mouse, in vivo, iv, 37 kBq/100 uL, total radioactivity, Heart, 180 min after i.v. administration, read-out: Radioactivity in Heart",0.03 %ID
same,tissue uptake dose at 10 min,"male, ddY, mouse, in vivo, iv, 37 kBq/100 uL, total radioactivity, Kidney, 10 min after i.v. administration, read-out: Radioactivity in Kidney",12.4 %ID
same,tissue uptake dose at 1 h,"male, ddY, mouse, in vivo, iv, 37 kBq/100 uL, total radioactivity, Kidney, 60 min after i.v. administration, read-out: Radioactivity in Kidney",0.99 %ID
same,tissue uptake dose at 3 h,"male, ddY, mouse, in vivo, iv, 37 kBq/100 uL, total radioactivity, Kidney, 180 min after i.v. administration, read-out: Radioactivity in Kidney",0.76 %ID
same,tissue uptake dose at 10 min,"male, ddY, mouse, in vivo, iv, 37 kBq/100 uL, total radioactivity, Large-intestine, 10 min after i.v. administration, read-out: Radioactivity in Large-intestine",0.3 %ID
same,tissue uptake dose at 1 h,"male, ddY, mouse, in vivo, iv, 37 kBq/100 uL, total radioactivity, Large-intestine, 60 min after i.v. administration, read-out: Radioactivity in Large-intestine",0.04 %ID
same,tissue uptake dose at 3 h,"male, ddY, mouse, in vivo, iv, 37 kBq/100 uL, total radioactivity, Large-intestine, 180 min after i.v. administration, read-out: Radioactivity in Large-intestine",0.15 %ID
same,tissue uptake dose at 10 min,"male, ddY, mouse, in vivo, iv, 37 kBq/100 uL, total radioactivity, Liver, 10 min after i.v. administration, read-out: Radioactivity in Liver",0.39 %ID
same,tissue uptake dose at 1 h,"male, ddY, mouse, in vivo, iv, 37 kBq/100 uL, total radioactivity, Liver, 60 min after i.v. administration, read-out: Radioactivity in Liver",0.05 %ID
same,tissue uptake dose at 3 h,"male, ddY, mouse, in vivo, iv, 37 kBq/100 uL, total radioactivity, Liver, 180 min after i.v. administration, read-out: Radioactivity in Liver",0.05 %ID
same,tissue uptake dose at 10 min,"male, ddY, mouse, in vivo, iv, 37 kBq/100 uL, total radioactivity, Lung, 10 min after i.v. administration, read-out: Radioactivity in Lung",1.19 %ID
same,tissue uptake dose at 1 h,"male, ddY, mouse, in vivo, iv, 37 kBq/100 uL, total radioactivity, Lung, 60 min after i.v. administration, read-out: Radioactivity in Lung",0.08 %ID
same,tissue uptake dose at 3 h,"male, ddY, mouse, in vivo, iv, 37 kBq/100 uL, total radioactivity, Lung, 180 min after i.v. administration, read-out: Radioactivity in Lung",0.03 %ID
same,tissue uptake dose at 10 min,"male, ddY, mouse, in vivo, iv, 37 kBq/100 uL, total radioactivity, Muscle, 10 min after i.v. administration, read-out: Radioactivity in Muscle",0.57 %ID
same,tissue uptake dose at 1 h,"male, ddY, mouse, in vivo, iv, 37 kBq/100 uL, total radioactivity, Muscle, 60 min after i.v. administration, read-out: Radioactivity in Muscle",0.08 %ID
same,tissue uptake dose at 3 h,"male, ddY, mouse, in vivo, iv, 37 kBq/100 uL, total radioactivity, Muscle, 180 min after i.v. administration, read-out: Radioactivity in Muscle",0.05 %ID
same,tissue uptake dose at 10 min,"male, ddY, mouse, in vivo, iv, 37 kBq/100 uL, total radioactivity, Pancreas, 10 min after i.v. administration, read-out: Radioactivity in Pancreas",0.5 %ID
same,tissue uptake dose at 1 h,"male, ddY, mouse, in vivo, iv, 37 kBq/100 uL, total radioactivity, Pancreas, 60 min after i.v. administration, read-out: Radioactivity in Pancreas",0.07 %ID
same,tissue uptake dose at 3 h,"male, ddY, mouse, in vivo, iv, 37 kBq/100 uL, total radioactivity, Pancreas, 180 min after i.v. administration, read-out: Radioactivity in Pancreas",0.03 %ID
same,tissue uptake dose at 10 min,"male, ddY, mouse, in vivo, iv, 37 kBq/100 uL, total radioactivity, Small-intestine, 10 min after i.v. administration, read-out: Radioactivity in Small-intestine",0.38 %ID
same,tissue uptake dose at 1 h,"male, ddY, mouse, in vivo, iv, 37 kBq/100 uL, total radioactivity, Small-intestine, 60 min after i.v. administration, read-out: Radioactivity in Small-intestine",0.08 %ID
same,tissue uptake dose at 3 h,"male, ddY, mouse, in vivo, iv, 37 kBq/100 uL, total radioactivity, Small-intestine, 180 min after i.v. administration, read-out: Radioactivity in Small-intestine",0.05 %ID
same,tissue uptake dose at 10 min,"male, ddY, mouse, in vivo, iv, 37 kBq/100 uL, total radioactivity, Spleen, 10 min after i.v. administration, read-out: Radioactivity in Spleen",0.42 %ID
same,tissue uptake dose at 1 h,"male, ddY, mouse, in vivo, iv, 37 kBq/100 uL, total radioactivity, Spleen, 60 min after i.v. administration, read-out: Radioactivity in Spleen",0.07 %ID
same,tissue uptake dose at 3 h,"male, ddY, mouse, in vivo, iv, 37 kBq/100 uL, total radioactivity, Spleen, 180 min after i.v. administration, read-out: Radioactivity in Spleen",0.03 %ID
same,tissue uptake dose at 10 min,"male, ddY, mouse, in vivo, iv, 37 kBq/100 uL, total radioactivity, Stomach (footnote b), 10 min after i.v. administration, read-out: Radioactivity in Stomach",0.24 %ID
same,tissue uptake dose at 1 h,"male, ddY, mouse, in vivo, iv, 37 kBq/100 uL, total radioactivity, Stomach (footnote b), 60 min after i.v. administration, read-out: Radioactivity in Stomach",0.1 %ID
same,tissue uptake dose at 3 h,"male, ddY, mouse, in vivo, iv, 37 kBq/100 uL, total radioactivity, Stomach (footnote b), 180 min after i.v. administration, read-out: Radioactivity in Stomach",0.02 %ID
same,tissue uptake at 1 h,"male, ddY, mouse, in vivo, iv, 37 kBq/100 uL, total radioactivity, 60 min after injection, mice, read-out: accumulation in bone",12.8 ± 1.7 %ID/g
same,tissue uptake dose at 10 min,"mouse, in vivo, iv, 37 kBq/100 uL, total radioactivity, Blood, 10 min after i.v. administration (37 kBq/100 µL), gamma counter, read-out: Radioactivity in Blood",1.61 %ID
